What was measured:
[1] = target: His-tagged Xa5 (OsTFIIAγ5), labelled with NT-647 (rice (Oryza sativa)) (UniProt A2XZI2); assay: MST; […]; 50 mM Tris-HCl pH 7.8, 150 mM NaCl, 10 mM MgCl2, 0.05% Tween-20; 25°C; […]
[2] = target: His-tagged OsTFIIAγ1, labelled with NT-647 (rice (Oryza sativa)); assay: as above

For His-tagged AvrXa7 (natural protein), the Kd [1] was less than 1000 nM and the Kd [2] was less than 1000 nM.

For “His-tagged PthXo1 (from UniProt B2SU53 1-1373) (natural protein)”, the Kd [2] was less than 1000 nM.

“His-tagged AvrXa27 (from UniProt A0A0K0GNW2 1-1136) (natural protein)” showed a Kd [2] of less than 1000 nM.

From paper PMC6638009
